Data on 19 molecules can be found in US20260258115A1.

Residue numbers refer to the chain shown, from its start. A value given as a limit tells only on which side of the number the result lay.

B1: ADI-41156 (antibody, V domains shown)
VH: QVQLVQSGGGLVQPGGSLRLSCVASGFIFSSYEMNWVRQAPGKGLEWVSYISSSGSTIYYADSVKGRFTISRDNAKNSLYLQMNSLGAEDTAVYYCARAILYFDYWGQGTLVTVSS
VL: GIRLTQSPSSLSASVGDRVTITCRASQSITNYINWYQQKPGKAPKLLIYAISRLQSGVPSRFSGSGSGTDFTLTISSLQPEDFATYYCQQSYSTMYTFGQGTKVEIK
B2: ADI-41324 (antibody, V domains shown)
VH: EVQLVESGGGLVQPGGSLRLSCAASGFTVSNNYMRWVRQAPGKGLEWVSVIYSSGSTDYADSVKGRFTISRDNSKNTLYLQMNSLRAEDTAVYYCARERTLFYYDSSGFFDYWGQGTLVTVSS
VL: ETTLTQSPGTLSLSPGERATLSCRASQSVDSSYLAWYQQKPGQAPRLLIYGASNRATGIPDRFSGSGSGTDFTLTISRLEPEDFAVYYCQQYGRSLTFGGGTKLEIK
B3: ADI-41341 (antibody, V domains shown)
VH: QVQLVQSGAEVKKPGSSVKVSCKASGGTFSSYATHWVRQAPGQGLEWMGGIIPIFGRATYAQKFQGRVTISADESTSTAYMELSSLRSEDTAVYYCARGRDDRSGDHIAFLYHYGMDVWGQGSTVTVSS
VL: QSVLTQPPSVSAAPGQKVSISCSGSSSNIGINHASWYQHLPGTAPKLLIYDNNKRPSGIPDRFSGSKSGTSATLGISGLQTGDEAAYYCGTWDTGLSAVVFGGGTKLTVL
B4: ADI-41318 (antibody, V domains shown)
VH: EVQLLESGAEVKKPGSSVRVSCKAFGGTFSSYAFSWVRQAPGQGLEWMGGITPMFGTENYAPNFQGRVTITADKLTTTVYMELSRLRSEDSAVYYCAREGGRLGTTMGAFDMWGQGTMVTVSS
VL: DIRLTQSPSSLSASVGDRVTITCRASHGISSALAWYQQRPGRVPQVLIFHASTLESGVPSRFSGSGSGTDFTLTISSLQPEDFATYYCQQFNSYPYTFGQGTKVEIK
B5: ADI-41309 (antibody, V domains shown)
VH: EVQLLESGPGLVKPSQTLSLTCTVSGGSISSGDYYWSWVRQPPGKGLEWIGNIYHSGSTYYKPSLKSRVSISLDTSKNQFSLKLSSVTAADTAIYYCARDGGENYVWGTFRFLDVWGQGTTVTVSS
VL: DIRLTQSPGTLSLSPGERATLSCRASQSVSSSYLAWYQQKPGQAPRLLIYGVSSRATGIPDRFSGSGSGTDFTLTINRLEPEDFALYHCQQYGSSPHTFGQGTKVEIK
B6: ADI-41323 (antibody, V domains shown)
VH: EVQLLESGGGVVRPGGSLRLSCAASGFTFDDYAMGWVRQAPGKGLEWVSGITWNAGSTAYAGSVKGRFTISRDNAKNSLFLQMNSLRAEDTAFYLCARHVDSSGPVARHFDYWGQGTLVTVSS
VL: NFMLTQPHSVSESPGKTVTISCTRSSGSIARNYVQWYQQRPGSAPTIVIYEDNQRPSGVPDRFSGSIDSSSNSASLTISGLKTEDEADYYCQSYDPSNVVFGGGTKLTVL
B7: ADI-41345 (antibody, V domains shown)
VH: EVQLVQSGAEVRKPGESLKISCKGSGYNFASYWIAWVRQMPGKGLEWMGIIFPGDSDTRYSPSFQGQVTISVDKSISTAYLQWSSLKASDTAIYYCATSKYTFGYLDWGQGTLVTVSS
VL: B6 VL with R31S, I47T, P96T, V99Q, G103T, L107V
B8: ADI-41346 (antibody, V domains shown)
VH: QVQLVQSGPEVKKPGESLKISCTLSASGLTTYWIGWVRQMPAKGLEWMGIIFPGDSDTRYSPSFQGQVTISADKSTNTAYLQWSGLKASDTAIYYCATLQTPVTGLDQWGQGTLVTVSS
VL: B6 VL with S28N, N32S, I47T, Y50H, N53D, S69T, V99Y, G103T, L107V
B9: ADI-41313 (antibody, V domains shown)
VH: EVQLVESGAEVKKPGASVKVSCKASGYTFNNYDISWVRQAPGQGLEWMGWISTYNGNTNYAQKFQGRATMTTDTSTTTAYMELRSLRSDDSAIYYCARVYCGGDCHNPFFLYFDLWGRGTLVTVSS
VL: SYVLTQPLSVSVALGQTARITCGGNNIGSKSVHWYQQKPGQAPLLVIYRDNNRPSGIPERFSGSTSGNTATLTISRAQAGDEADYSCQVWDNSDWVFGGGTKLTVL
B10: ADI-41315 (antibody, V domains shown)
VH: EVQLLESGPGLVKPSETLSLTCAVSGGSISNYYWSWIRQPPGKGLEWIAYISYSGTTNYNPSLESRVTISVDTSKNQFSLKLNSVTAADTAVYYCARHEFLVLPDVWGQGTLVTVSS
VL: ETTLTQSPGTLSLSPGERATLSCRASQSVSSTFLAWYQQKPGQAPRLLIYAASSRATGIPDRFSGSGSGTDFTLIISRLEPEDFAVYYCQQYRSSPFSFGPGTKVEIK
B11: ADI-41308 (antibody, V domains shown)
VH: EVQLVESGPGLVKPSQTLSLTCAISGDSVSSNSAAWNWIRQSPSRGLERMGRTYYRSKWYDDYAVSVKSRIIINPDTSKNQFSLQLNSVTPEDTAVYYCARGISTFGGVIYALEIWGQGTMVTVSS
VL: SYVLTQPASVSGSPGQSITISCTGLTSDVGGYNFVSWYQQHPGKAPKLIIYDVSHRPSGVSNRFSGSESGNTASLTISGLQAEDEAHYYCSSYTRTSIVVFGGGTKLTVL
B12: ADI-41316 (antibody, V domains shown)
VH: QVQLVQSGGGVVQPGRSLRLSCAASGFTFNNYGMHWVRQAPGKGLEWVAVLSFDGINKYYADSARGRFTISRDNSKNTLYLQMNSLRAEDTALYYCAKDRQEYSSGWTHDACDIWGQGTMVTVSS
VL: EIVMTQSPATLSVSPGERATLSCRASQNVNNNLAWYQQNPGQAPRLLIFGASTRATGIPARFSGSGSGTEFTLTISSLQSEDFAVYYCQQYNNWPRTFGQGTKLEIK
B13: ADI-41314 (antibody, V domains shown)
VH: QVQLVQSGAEVKKPGSSVKVSCKAFGGIFSSYAISWVRQAPGQGLEWMGGIIPIFGTTKYAQKFQGRVTITADKSTSTVYMEVSSLRFEESAVYFCARAYCSGGTWYGGADYWGQGTLVTVSS
VL: QSVLTQPPSVSVSPGQTARITCSGDVLPKQYAYWYQQKPGQAPLLVMYKDTERPSGIPERFSGSSSVTAVTLTISGVQAEDEADYYCQSADSTQELFGGGTKLTVL
B14: ADI-41307 (antibody, V domains shown)
VH: QVQLVESGGGLVKPGGSLRLSCAASGFPLSPYALNWVRQAPGKGLEWVSSITSSSAYIYYADSVKGRFTVSRDNPTNSLYLQMNSLRAEDTAVYYCARTIPQHYYDNNGDYYNYGMDVWGQGTTVTVSS
VL: DIVLTQSPATLSVSPGQRITLSCRASQTVRSNLAWYQQKPGQPPRLLIYGASTRATGVPARFTGSGSGTEFTLTITSLQSDDFAVYYCHQYNDRPLTFGPGTKVEIK
B15: ADI-41347 (antibody, V domains shown)
VH: EVQLVESGPGLVKPSGTLSLTCAVSGGSVSSDNWWSWVRQPPGKGIEWIGEIYPSGGTNYNPSLNSRVTISVDKSKNQFSLKLNSVTAADTAIYYCARAPFDSSGYHSNSVWGQGTLVTVSS
VL: ETTLTQSPLSLPVTPGEPASISCRSSQSLLHSNGHNYLDWYVQKPGQSPQLLIYLSSNRASGVPDRFSGSGSGTDFTLRISRVEAEDVGVYYCMQPLQTPQTFGQGTKVEIK
B16: ADI-41342 (antibody, V domains shown)
VH: QVQLVQSGAEVKKPGSSVKVSCKASGGTLTSYGVSWVRQAPGQGLEWMGGIIPIFGTVDYAQKFQGRVTITADEPTSTAYMELSSLTSDDTAVYYCARDPWVSGPVEFYYYFDVWGRGTLVTVSS
VL: DIVLTESPATLSLSPGERATLSCRASQSINNRYLAWYQQKPGQAPRLLIFGASSRATGIPDRFSGSGSGTDFTLTISRLEPEDFAVYYCQQYGSTPPTFGQGTKVEIK
B17: ADI-41311 (antibody, V domains shown)
VH: QVTLKQSGPALVKPTQTLTLTCTFSGFSLSTKRMGVSWIRQPPGKALEWLARIDWDDDKYYSTSLRTRLTISKDTSKNQVVLTMTDMDPVDTATYYCARIQPYTSGGYYSYYFDYWGQGTLVTVSS
VL: DIQVTQSPSSLSASIGDRVTITCRASQTIASYLNWYQQKPGKAPKLLIYIASSLQSGVPSRFSGSGSGTDFTLTISTLQPEDFATYYCQQSYGTPWTFGQGTKVEIK
B18: ADI-41306 (antibody, V domains shown)
VH: QVQLVESGPRLVKPSQTLSLTCTVSGGSIYRGDYDWNWIRQPPGKGLEWIGYISYTGNTHYNSSLKSRLSISADTSGTHFSLKLSSVTAADTAIYYCARDVGYGGNAAHYYYYAMDVWGQGTTVTVSS
VL: ETTLTQSPATLSLSPGERATLSCRASQSVGSSLAWYQQKVGQAPRLLIYDASSRVTGIPARFSGSGSGTDFTLTISSLEPGDFAVYYCQQRSNSLTFGGGTKVEIK
B19: ADI-41304 (antibody, V domains shown)
VH: EVQLVESGPGLVKPSQTLSLTCTVSGGSIRSHDYYWSWIRQPPGKGLEWIGYSYYSGSTYYNPSLKSRVIISLDTSKNQFSLNLTSVTAADTAMYYCARDRPHTSSWIPGWFDPWGQGTLVTVSS
VL: SYELTQPPSASGTPGQRVTISCSGSSSNIGSNTVSWYQQFPGKAPKLLIYSNNERPSGGPDRFSGSKSGTSASLAIGGLQSEDEANYYCAAWDDSLYAVVFGGGTKLTVL

The target of one assay is Respiratory Syncytial Virus fusion glycoprotein (RSV F) on RSV-A2 virus (Respiratory Syncytial Virus subtype A (RSV-A2)). Kind of assay: cell-based or functional assay.
B1 gave a Neutralization IC50 (RSV subtype A) above 25 µg/mL.

The target of another assay is RSV postfusion F (postF, F deltaFP) (Respiratory syncytial virus). Kind of assay: BLI, IgG on sensor, 100 nM antigen. (In general: BLI is a label-free optical method that tracks binding on a fibre tip over time.)
The term Kd denotes the equilibrium constant for the complex coming apart. In turn, B2 had a Kd of 0.426 nM.

B3 showed a dissociation constant Kd of 1.97 nM.

In turn, B4 yielded a Kd of 35.4 nM.

With B5, the Kd amounted to 1.36 nM.

On to B6, for which the Kd was 0.331 nM.

Molecule B7 came in with a Kd of 0.349 nM.

As to B8, the Kd was 0.267 nM.

The molecule B9 yielded a Kd of 0.342 nM.

With B10, the Kd is 1.03 nM.

Molecule B11 yielded a Kd of 0.519 nM.

Turning to B12, the Kd turned out to be 1.05 nM.

The molecule B13 showed a Kd of 0.414 nM.

For B14, the Kd came out at 0.83 nM.

B15: the Kd worked out at 0.521 nM.

With B16, the Kd is 0.591 nM.

The molecule B17 registered a Kd of 0.524 nM.

Take B18: the Kd was found to be 0.454 nM.

In turn, B19 had a Kd of 0.33 nM.

The target of another assay is RSV prefusion F (preF, DS-Cav1) (Respiratory syncytial virus). Kind of assay: BLI, IgG on sensor, 100 nM antigen.
The molecule B2 had a Kd of 2.47 nM.

For B3, the Kd is 2.83 nM.

B4 registered a Kd of 426 nM.

The molecule B5 came in with a Kd of 4.34 nM.

As to B6, the Kd came out at 1.95 nM.

Consider B7, for which the Kd came to 2.29 nM.

B8 came in with a Kd of 1.88 nM.

As for B9, the Kd worked out at 0.455 nM.

In the case of B10, the Kd was 2.93 nM.

In turn, B11 yielded a Kd of 4 nM.

Molecule B12 came in with a Kd of 3.74 nM.

With B13, the Kd came out at 2.41 nM.

Turning to B14, the Kd is 2.99 nM.

In turn, B15 registered a Kd of 2.6 nM.

Take B16: the Kd came out at 3.99 nM.

In the case of B17, the Kd is 0.754 nM.

Molecule B18 registered a Kd of 0.462 nM.

B19 gave a Kd of 0.338 nM.

The target of the next assay is RSV postfusion F (postF), F deltaFP (Respiratory Syncytial Virus). The experiment in a line: BLI, IgG on anti-human IgG sensor, 100 nM antigen.
Regarding B1, the Kd turned out to be 1.7 nM.
